[ ]: non-standard residue; d: D form. Phe(4-Ac) = CC(=O)c1ccc(C[C@H](N)C(=O)O)cc1

The test concerns the target beta Klotho and FGFR1c (Fibroblast Growth Factor Receptor isoform 1c) expressed on the cell surface of a proprietary stable cell line (HEK293). The test is described as follows: cell-based or functional assay.

B1: bFGF-21-Q108-30KPEG (ligand)
chain: HPIPDSSPLLQFGGQVRQRYLYTDDAQETEAHLEIRADGTVVGAARQSPESLLELKALKPGVIQILGVKTSRFLCQGPDGKLYGSLHFDPKACSFRELLLEDGYNVY[Phe(4-Ac)](PEG 30 kDa)SETLGLPLRLPPQRSSNRDPAPRGPARFLPLPGLPAAPPDPPGILAPEPPDVGSSDPLSMVGPSYGRSPSYTS
Molecule B1 displayed an Average Fold Loss Potency Relative to bFGF-21-Q108-30KPEG, Elk1 luciferase reporter assay of 1 fold; an EC50 (ng/mL), STEADY-GLO Elk1 luciferase reporter assay of 147 ng/mL; an Emax (%) relative to WT bFGF-21, Elk1 luciferase reporter assay of 73%; a Fold loss potency relative to WT bFGF21, Elk1 luciferase reporter assay of 4 fold.

B2: bFGF-21-Q108-30KPEG G170S (ligand)
chain: HPIPDSSPLLQFGGQVRQRYLYTDDAQETEAHLEIRADGTVVGAARQSPESLLELKALKPGVIQILGVKTSRFLCQGPDGKLYGSLHFDPKACSFRELLLEDGYNVY[Phe(4-Ac)](PEG 30 kDa)SETLGLPLRLPPQRSSNRDPAPRGPARFLPLPGLPAAPPDPPGILAPEPPDVGSSDPLSMVSPSYGRSPSYTS
In turn, B2 registered an Average Fold Loss Potency Relative to bFGF-21-Q108-30KPEG, Elk1 luciferase reporter assay of 0.8 fold.

B3: bFGF-21-Q108-30KPEG G170D (ligand)
chain: HPIPDSSPLLQFGGQVRQRYLYTDDAQETEAHLEIRADGTVVGAARQSPESLLELKALKPGVIQILGVKTSRFLCQGPDGKLYGSLHFDPKACSFRELLLEDGYNVY[Phe(4-Ac)](PEG 30 kDa)SETLGLPLRLPPQRSSNRDPAPRGPARFLPLPGLPAAPPDPPGILAPEPPDVGSSDPLSMVDPSYGRSPSYTS
In turn, B3 displayed an Average Fold Loss Potency Relative to bFGF-21-Q108-30KPEG, Elk1 luciferase reporter assay of 8.7 fold.

B4: bFGF-21-R131-30KPEG (ligand)
chain: HPIPDSSPLLQFGGQVRQRYLYTDDAQETEAHLEIRADGTVVGAARQSPESLLELKALKPGVIQILGVKTSRFLCQGPDGKLYGSLHFDPKACSFRELLLEDGYNVYQSETLGLPLRLPPQRSSNRDPAP[Phe(4-Ac)](PEG 30 kDa)GPARFLPLPGLPAAPPDPPGILAPEPPDVGSSDPLSMVEPSYGRSPSYTS
modifications: not fully specified; also: PEG: linear aminooxy-PEG
Take B4: the EC50 (ng/mL), STEADY-GLO Elk1 luciferase reporter assay was 556 ng/mL; the Emax (%) relative to WT bFGF-21, Elk1 luciferase reporter assay stood at 38%; the Fold loss potency relative to WT bFGF21, Elk1 luciferase reporter assay came out at 14 fold.

B5: bFGF-21-Q108pAF-30KPEG-G170E (ligand)
chain: HPIPDSSPLLQFGGQVRQRYLYTDDAQETEAHLEIRADGTVVGAARQSPESLLELKALKPGVIQILGVKTSRFLCQGPDGKLYGSLHFDPKACSFRELLLEDGYNVY[Phe(4-Ac)](PEG 30 kDa)SETLGLPLRLPPQRSSNRDPAPRGPARFLPLPGLPAAPPDPPGILAPEPPDVGSSDPLSMVEPSYGRSPSYTS
Consider B5, for which the Average Fold Loss Potency Relative to bFGF-21-Q108-30KPEG, Elk1 luciferase reporter assay turned out to be 3.7 fold.

B6: bFGF-21-K91-30KPEG (ligand)
chain: HPIPDSSPLLQFGGQVRQRYLYTDDAQETEAHLEIRADGTVVGAARQSPESLLELKALKPGVIQILGVKTSRFLCQGPDGKLYGSLHFDP[Phe(4-Ac)](PEG 30 kDa)ACSFRELLLEDGYNVYQSETLGLPLRLPPQRSSNRDPAPRGPARFLPLPGLPAAPPDPPGILAPEPPDVGSSDPLSMVEPSYGRSPSYTS
modifications: not fully specified; also: PEG: linear aminooxy-PEG
For B6, the EC50 (ng/mL), STEADY-GLO Elk1 luciferase reporter assay was found to be 537 ng/mL; the Emax (%) relative to WT bFGF-21, Elk1 luciferase reporter assay came to 57%; the Fold loss potency relative to WT bFGF21, Elk1 luciferase reporter assay amounted to 14 fold.

B7: bFGF-21-Q108-30KPEG G170A (ligand)
chain: HPIPDSSPLLQFGGQVRQRYLYTDDAQETEAHLEIRADGTVVGAARQSPESLLELKALKPGVIQILGVKTSRFLCQGPDGKLYGSLHFDPKACSFRELLLEDGYNVY[Phe(4-Ac)](PEG 30 kDa)SETLGLPLRLPPQRSSNRDPAPRGPARFLPLPGLPAAPPDPPGILAPEPPDVGSSDPLSMVAPSYGRSPSYTS
With B7, the Average Fold Loss Potency Relative to bFGF-21-Q108-30KPEG, Elk1 luciferase reporter assay was found to be 1.7 fold.

B8: bFGF-21-G77-30KPEG (ligand)
chain: HPIPDSSPLLQFGGQVRQRYLYTDDAQETEAHLEIRADGTVVGAARQSPESLLELKALKPGVIQILGVKTSRFLCQ[Phe(4-Ac)](PEG 30 kDa)PDGKLYGSLHFDPKACSFRELLLEDGYNVYQSETLGLPLRLPPQRSSNRDPAPRGPARFLPLPGLPAAPPDPPGILAPEPPDVGSSDPLSMVEPSYGRSPSYTS
modifications: not fully specified; also: PEG: linear aminooxy-PEG
Turning to B8, the EC50 (ng/mL), STEADY-GLO Elk1 luciferase reporter assay came out at 347 ng/mL; the Emax (%) relative to WT bFGF-21, Elk1 luciferase reporter assay was determined as 50%; the Fold loss potency relative to WT bFGF21, Elk1 luciferase reporter assay came to 9 fold.

Values taken from patent US20190201491A1.
